From US20250353908A1 (ARCELLX, published 2025) come the findings set out here.

Test [1] has as its target T1, CS1-Fc (human, UniProt Q9NQ25 23-226).
T1 construct: also called recombinant human CS1-Fc; CS1-Fc polypeptide; not shown: Fc portion of CS1-Fc
T1 sequence: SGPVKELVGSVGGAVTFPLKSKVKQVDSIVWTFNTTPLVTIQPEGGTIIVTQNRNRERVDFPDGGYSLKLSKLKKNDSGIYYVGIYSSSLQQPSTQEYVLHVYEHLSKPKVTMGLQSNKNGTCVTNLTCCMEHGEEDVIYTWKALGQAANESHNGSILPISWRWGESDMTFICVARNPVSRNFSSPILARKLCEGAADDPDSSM
The experiment in a line: phage ELISA, CS1-Fc captured on anti-human IgG1-Fc, anti-M13-HRP, A450 target / A450 IgG1-Fc. The method, then: To identify new CS1-specific D domains, a D domain phage library described in Intl. Appl. Pub. No. WO 2016164305 and U.S. Pat. No. 10,662,248 was screened with a CS1-Fc polypeptide following standard protocols. Individual colonies containing phagemid from the CS1 panning output were picked and phage were rescued. To assay target binding by ELISA, 96-well plates were coated with anti-human IgG1-Fc antibody followed by incubation with CS1-Fc or IgG1-Fc. Rescued phage diluted in ELISA blocking buffer was then added to each well. Binding was detected using an HRP-conjugated anti-M13 antibody and the ELISA ratio for each DD sequence was determined as the absorbance at 450 nm for target (i.e., CS1-Fc) divided by that for IgG1-Fc averaged across all screened wells containing that clone.
Background: In an ELISA, binding on a coated surface is turned into a signal by an enzyme label.

Test [2] deals with T1, CS1-Fc. Nature of the test: SPR (Biacore), adapter protein DD-GS linker-Q26, CS1-Fc target. From the text: One or more of the above discussed methods were used to identify the SEQ ID NO: 41-47, 49-61, 91-93 and 96-106 variant CS1 specific D domains. […] In addition to binding human CS1, the CS1DD03, CSDD006 and CS1DD007 D domains are cross-reactive with cyno/rhesus CS1.
(In general: In SPR one partner is held on a chip, and binding of the other changes the refractive index at the surface.)

Substitutions are numbered along the chain they refer to.

What is called Kd is a measure of binding affinity in units of concentration.

B1: SEQ ID NO 84 (designed binder)
chain: MGSWIEFGWRLQAIEERLRALGGSEAELAAFEKEIAAFESELQAYKGKGNPEVEVLREWAAEIRWQLQAYRHN
For B1, the “ELISA score (ratio of phage binding to CS1-Fc vs IgG-Fc)” value with CS1-Fc [1] amounted to 16.3 ratio.

B2: CS1DD023 (designed binder)
chain: MGSWVEFYDRLEAIWQRLEALGGSEAELAAFEKEIAAFESELQAYKGKGNPEVEKLRRHAAGIRMRLQAYRHN
With B2, in the test with CS1-Fc [1], the “ELISA score (ratio of phage binding to CS1-Fc vs IgG-Fc)” value is 18.8 ratio.

B3: SEQ ID NO 86 (designed binder)
chain: B2 chain with V5I, Y8Q, D9T, W15Y, E19D, K55T, R58W, M65Q, R66Y
Consider B3, for which, in the test with CS1-Fc [1], the “ELISA score (ratio of phage binding to CS1-Fc vs IgG-Fc)” value stood at 6.03 ratio.

B4: SEQ ID NO 88 (designed binder)
chain: B2 chain with V5E, D9V, E12D, Q16E, K55G, R58W, M65E
With B4, the “ELISA score (ratio of phage binding to CS1-Fc vs IgG-Fc)” value with CS1-Fc [1] stood at 13.5 ratio.

B5: SEQ ID NO 76 (designed binder)
chain: B2 chain with V5E, Y8Q, D9N, E12G, Q16D, K55S, R58W, M65T
As for B5, the “ELISA score (ratio of phage binding to CS1-Fc vs IgG-Fc)” value with CS1-Fc [1] was found to be 16.6 ratio.

B6: CS1DD008 (designed binder)
chain: MGSWDEFNQRLGAIEERLQALGGSEAELAAFEKEIAAFESELQAYKGKGNPEVEFLRWYAAGIRWELQAYRHN
On to B6, for which the “ELISA score (ratio of phage binding to CS1-Fc vs IgG-Fc)” value with CS1-Fc [1] was 19.2 ratio.

B7: CS1DD021 adapter protein of the format DD-GS linker-Q26 (designed binder)
chain: B6 chain with I14F, F31L, A61D
As to B7, binding with CS1-Fc [2] was characterised by a dissociation constant (Kd) of 16 nM.

B8: SEQ ID NO 87 (designed binder)
chain: MGSWTEFHNRLWAIYDRLDALGGSEAELAAFEKEIAAFESELQAYKGKGNPEVETLRHHAAGIRRSLQAYRHN
Take B8: in the test with CS1-Fc [1], the “ELISA score (ratio of phage binding to CS1-Fc vs IgG-Fc)” value was found to be 14.7 ratio.

B9: SEQ ID NO 80 (designed binder)
chain: MGSWTEFWYRLSAIDLRLEALGGSEAELAAFEKEIAAFESELQAYKGKGNPEVEELRDYAAYIRAELQAYRHN
As to B9, the “ELISA score (ratio of phage binding to CS1-Fc vs IgG-Fc)” value in the test with CS1-Fc [1] stood at 17.8 ratio.

B10: SEQ ID NO 70 (designed binder)
chain: B9 chain with T5M, Y9H, S12T, L16S, E55D, D58Q, Y62S, A65K, E66S
Consider B10, for which the “ELISA score (ratio of phage binding to CS1-Fc vs IgG-Fc)” value with CS1-Fc [1] is 10.5 ratio.

B11: SEQ ID NO 69 (designed binder)
chain: B9 chain with T5Y, Y9S, D15H, L16V, E55D, D58A, Y62F, A65S
In the case of B11, in the test with CS1-Fc [1], the “ELISA score (ratio of phage binding to CS1-Fc vs IgG-Fc)” value was 16.9 ratio.

B12: SEQ ID NO 66 (designed binder)
chain: B9 chain with T5A, Y9S, L16E, E19G, D58E, Y62E, A65R, E66V
With B12, the “ELISA score (ratio of phage binding to CS1-Fc vs IgG-Fc)” value with CS1-Fc [1] is 18 ratio.

B13: SEQ ID NO 77 (designed binder)
chain: B9 chain with T5S, Y9F, S12L, D15E, L16Q, E55D, Y62L, A65E, E66M
Turning to B13, in the test with CS1-Fc [1], the “ELISA score (ratio of phage binding to CS1-Fc vs IgG-Fc)” value turned out to be 17.8 ratio.

B14: SEQ ID NO 83 (designed binder)
chain: B9 chain with Y9A, S12T, E19I, Y62F, E66N
With B14, the “ELISA score (ratio of phage binding to CS1-Fc vs IgG-Fc)” value in the test with CS1-Fc [1] was determined as 13.4 ratio.

B15: SEQ ID NO 71 (designed binder)
chain: B9 chain with T5S, Y9H, L16A, E55D, D58A, Y62M, A65N, E66V
For B15, the “ELISA score (ratio of phage binding to CS1-Fc vs IgG-Fc)” value with CS1-Fc [1] is 14 ratio.

B16: SEQ ID NO 78 (designed binder)
chain: B9 chain with T5A, Y9F, S12A, D15Q, L16M, E19Y, E55D, Y62H, A65Q
As to B16, in the test with CS1-Fc [1], the “ELISA score (ratio of phage binding to CS1-Fc vs IgG-Fc)” value was determined as 17.7 ratio.

B17: SEQ ID NO 82 (designed binder)
chain: B9 chain with T5S, Y9N, S12I, L16Y, E19L, Y62H, A65W, E66N
Turning to B17, in the test with CS1-Fc [1], the “ELISA score (ratio of phage binding to CS1-Fc vs IgG-Fc)” value was 16.3 ratio.

B18: SEQ ID NO 73 (designed binder)
chain: B9 chain with T5S, Y9H, L16H, E19G, D58A, Y62E, A65R, E66N
For the molecule B18, the “ELISA score (ratio of phage binding to CS1-Fc vs IgG-Fc)” value with CS1-Fc [1] was determined as 18.7 ratio.

B19: SEQ ID NO 79 (designed binder)
chain: B9 chain with T5S, Y9T, S12A, L16M, E19N, E55D, Y62Q, A65E
In the case of B19, in the test with CS1-Fc [1], the “ELISA score (ratio of phage binding to CS1-Fc vs IgG-Fc)” value was 18.7 ratio.

B20: SEQ ID NO 81 (designed binder)
chain: B9 chain with T5S, Y9I, S12A, D15E, E19S, Y62I, A65R
As to B20, the “ELISA score (ratio of phage binding to CS1-Fc vs IgG-Fc)” value in the test with CS1-Fc [1] was 13.8 ratio.

B21: SEQ ID NO 74 (designed binder)
chain: B9 chain with T5S, Y9M, S12T, L16M, E19A, Y62V, A65E, E66S
Consider B21, for which, in the test with CS1-Fc [1], the “ELISA score (ratio of phage binding to CS1-Fc vs IgG-Fc)” value is 18.3 ratio.

B22: SEQ ID NO 89 (designed binder)
chain: MGSWSEFNSRLDAIFDRLFALGGSEAELAAFEKEIAAFESELQAYKGKGNPEVEELRSHAANIRASLQAYRHN
Take B22: the “ELISA score (ratio of phage binding to CS1-Fc vs IgG-Fc)” value with CS1-Fc [1] amounted to 19.6 ratio.

B23: SEQ ID NO 90 (designed binder)
chain: B22 chain with N8W, S9I, F15R, D16E, F19W, S58Y, H59F, A65Q, S66Q
Turning to B23, the “ELISA score (ratio of phage binding to CS1-Fc vs IgG-Fc)” value with CS1-Fc [1] worked out at 16.3 ratio.

B24: SEQ ID NO 62 (designed binder)
chain: MGSWHFFKARLAYIKQGLEALGGSEAELALFEEFIAEFESDLQQYKGKGNPEVEALRKEAAAIRDELQAYRHN
As to B24, the “ELISA score (ratio of phage binding to CS1-Fc vs IgG-Fc)” value with CS1-Fc [1] was 13.5 ratio.

B25: CS1DD018 adapter protein of the format DD-GS linker-Q26 (designed binder)
chain: MGSWDEFNQRLGAFEERLQALGGSEAELAAFEKEIAAFESELQAYKGKGNPEVEFLRWYADGIRWELQAYRHNGGGGDGGGGSGGGGSGQESQALAKRSCGLFQKLGEYYLQNAFLVAYTKKAPQLTSSELMAITRKMAATAATCCQLSEDKLLACGEGAADIIIGHLCIRHEMTPVNPGVGQCCTSSYANRRPCFSSLVVDETYVPPAFSDDKFIFHKDLCQAQGVALQTMKQEFLINLVKQKPQITEEQLEAVIADFSGLLEKCCQGQEQEVCFAEEGQKLISKTRAALGV
In the test with CS1-Fc [2], B25 had a Kd of 40 nM.

B26: CS1DD020-P26(Q26) Adapter (designed binder)
chain: B25 chain with F14I, F31L
notes: Monovalent Adapter: CS1DD020 D domain, GS linker, AFP p26 (Q26); The SPR sentence names only the format DD-GS linker-Q26; also called monovalent CS1DD020-P26(Q26); C1DD020 adapter protein of the format DD-GS linker-Q26
In the test with CS1-Fc [2], B26 had a Kd of 18 nM. This Kd lies about 2.2-fold lower than the previous one.

B27: CS1DD007 adapter protein of the format DD-GS linker-Q26 (designed binder)
chain: MGSWAEFFTRLDAIWERLEGLGGSEAELAALEKEIAAFESELQAYKGKGYPEVETLKFHAAGIRQKLQAYRHN
B27 had a dissociation constant Kd with CS1-Fc [2] of 23 nM.

B28: CS1DD006-P26(Q26) Adapter (designed binder)
chain: MGSWAEFFTRLDAIWERLEGLGGSEAELAAFEKEIAAFESELQAYKGKGYPEVETLKFHAAGIRQKLQAYRHNGGGGDGGGGSGGGGSGQESQALAKRSCGLFQKLGEYYLQNAFLVAYTKKAPQLTSSELMAITRKMAATAATCCQLSEDKLLACGEGAADIIIGHLCIRHEMTPVNPGVGQCCTSSYANRRPCFSSLVVDETYVPPAFSDDKFIFHKDLCQAQGVALQTMKQEFLINLVKQKPQITEEQLEAVIADFSGLLEKCCQGQEQEVCFAEEGQKLISKTRAALGV
notes: Monovalent Adapter: CS1DD006 D domain, GS linker, AFP p26 (Q26); The SPR sentence names only the format DD-GS linker-Q26; also called monovalent CS1DD006-P26(Q26); CS1DD006 adapter protein of the format DD-GS linker-Q26
As to B28, binding in the test with CS1-Fc [2] was characterised by a dissociation constant (Kd) of 38 nM. Compared with the last molecule, the Kd is about 1.7-fold higher.

B29: SEQ ID NO 65 (designed binder)
chain: MGSWVEFEWRLYAIAGRLEALGGSEAELAAFEKEIAAFESELQAYKGKGNPEVEYLRQGAARIRATLQAYRHN
B29: the “ELISA score (ratio of phage binding to CS1-Fc vs IgG-Fc)” value with CS1-Fc [1] was 15.7 ratio.

B30: SEQ ID NO 85 (designed binder)
chain: MGSWNEFNERLGAINHRLRALGGSEAELAAFEKEIAAFESELQAYKGKGNPEVEVLREGAAWIRAELQAYRHN
On to B30, for which the “ELISA score (ratio of phage binding to CS1-Fc vs IgG-Fc)” value with CS1-Fc [1] stood at 18.6 ratio.

B31: SEQ ID NO 72 (designed binder)
chain: MGSWYEFWHRLTAIEQRLWALGGSEAELAAFEKEIAAFESELQAYKGKGNPEVEDLRSYAAEIRWRLQAYRHN
Take B31: in the test with CS1-Fc [1], the “ELISA score (ratio of phage binding to CS1-Fc vs IgG-Fc)” value was found to be 8.75 ratio.

B32: SEQ ID NO 68 (designed binder)
chain: B31 chain with H9T, E15Q, Q16M, W19D, S58A, Y59F, E62Q, W65T, R66H
For B32, the “ELISA score (ratio of phage binding to CS1-Fc vs IgG-Fc)” value with CS1-Fc [1] is 13.1 ratio.

B33: SEQ ID NO 75 (designed binder)
chain: MGSWHEFWTRLTAIQMRLDALGGSEAELAAFEKEIAAFESELQAYKGKGNPEVEDLRAFAAQIRTHLQAYRHN
For B33, the “ELISA score (ratio of phage binding to CS1-Fc vs IgG-Fc)” value with CS1-Fc [1] came to 16 ratio.
